Values of other authors in paper PMC11133458.

Target: Glu14 (UniProt position 14, GAILAEVIGTT)
Settings: TPP-bound EmrE (Glu14 of monomer A deprotonated)

EmrE (multidrug efflux transporter, small multidrug resistance family) (Escherichia coli)
pKa: 6.8
